Experiments:
[1] = biological target: T1, recombinant human EphA10 extracellular domain protein (Glu34-Ala565), transcript variant 3, fused with … (human, UniProt Q5JZY3 34-565); assay: ELISA screen of phage display clones after panning on the recombinant protein
T1 construct: range 34-565; Commercial protein used for panning and the screening ELISA; also called EPHA10-369H (Creative Biomart); not shown: C-terminal DDK/His tag
T1 sequence (looked up): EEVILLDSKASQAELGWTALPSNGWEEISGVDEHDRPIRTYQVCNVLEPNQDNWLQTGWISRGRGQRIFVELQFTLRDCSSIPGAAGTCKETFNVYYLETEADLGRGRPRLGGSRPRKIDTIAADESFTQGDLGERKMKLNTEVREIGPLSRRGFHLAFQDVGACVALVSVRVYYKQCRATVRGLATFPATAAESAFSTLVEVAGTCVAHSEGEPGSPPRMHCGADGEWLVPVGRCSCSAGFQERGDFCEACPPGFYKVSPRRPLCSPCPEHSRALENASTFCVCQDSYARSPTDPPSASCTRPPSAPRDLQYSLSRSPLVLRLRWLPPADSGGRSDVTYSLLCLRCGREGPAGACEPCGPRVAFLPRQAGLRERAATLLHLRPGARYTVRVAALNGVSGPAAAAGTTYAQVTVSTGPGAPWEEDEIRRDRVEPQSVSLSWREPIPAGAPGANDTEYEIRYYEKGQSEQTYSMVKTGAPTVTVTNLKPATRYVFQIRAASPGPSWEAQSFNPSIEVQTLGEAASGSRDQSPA
Excerpt: (§1) A human B cell-derived scFv phage display library (Creative BioLabs, USA) was used to pan against the recombinant human EphA10 extracellular domain protein (Glu34-Ala565), transcript variant 3, fused with DDK/His tag at C-terminal (Creative Biomart, USA, Catalog no. EPHA10-369H). Positive clones were screened using ELISA. A unique CMU #5 were identified by DNA sequencing. The binding specificity of the unique clones was confirmed by FACS using full-length human EphA 10-expressing NIH 3T3 cells.

[2] = biological target: T2, full-length human EphA10 expressed on NIH 3T3 cells (human, UniProt Q5JZY3 34-1008); assay: FACS on transfected NIH 3T3 cells
T2 construct: whole, on cells; also called full-length human EphA 10-expressing NIH 3T3 cells
T2 sequence (looked up): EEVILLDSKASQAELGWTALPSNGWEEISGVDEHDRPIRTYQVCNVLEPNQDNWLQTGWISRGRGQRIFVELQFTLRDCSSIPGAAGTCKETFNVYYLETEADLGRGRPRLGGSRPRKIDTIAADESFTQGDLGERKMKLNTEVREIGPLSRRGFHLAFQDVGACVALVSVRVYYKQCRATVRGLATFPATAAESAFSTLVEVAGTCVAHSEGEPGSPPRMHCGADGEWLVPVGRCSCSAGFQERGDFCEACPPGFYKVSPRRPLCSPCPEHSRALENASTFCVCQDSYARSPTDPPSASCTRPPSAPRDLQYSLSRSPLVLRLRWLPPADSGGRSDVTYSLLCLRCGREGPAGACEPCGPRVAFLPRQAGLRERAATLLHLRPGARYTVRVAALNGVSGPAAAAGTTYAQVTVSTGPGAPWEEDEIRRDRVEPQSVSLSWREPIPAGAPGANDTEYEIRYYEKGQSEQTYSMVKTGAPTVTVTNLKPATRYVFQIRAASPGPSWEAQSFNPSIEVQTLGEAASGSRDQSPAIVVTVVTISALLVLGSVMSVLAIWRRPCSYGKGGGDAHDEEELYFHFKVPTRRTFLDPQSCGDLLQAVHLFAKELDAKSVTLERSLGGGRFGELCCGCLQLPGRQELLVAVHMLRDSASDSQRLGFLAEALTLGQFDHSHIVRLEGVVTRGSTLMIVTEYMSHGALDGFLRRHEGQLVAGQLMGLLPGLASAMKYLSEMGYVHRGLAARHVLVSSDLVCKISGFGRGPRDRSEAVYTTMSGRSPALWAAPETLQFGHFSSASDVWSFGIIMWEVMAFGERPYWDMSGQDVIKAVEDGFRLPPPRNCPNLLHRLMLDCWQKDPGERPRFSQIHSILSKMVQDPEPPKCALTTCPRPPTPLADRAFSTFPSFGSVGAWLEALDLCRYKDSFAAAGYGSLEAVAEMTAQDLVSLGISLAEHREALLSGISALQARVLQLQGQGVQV
Excerpt: as §1

B1: CMU #5 scFv (clone from the human B cell-derived scFv phage display library) (scFv)
scFv: EVQLVQSGGGVVQPGGSLRLSCAASGFTFDDYAMHWVRQAPGKGLEWVAVISYDGSNKYYADSVKGRFTISRDNSKNTLYLQMNSLRAEDTAVYYCARDGLPAFDIWGKGTLVTVSSGGGGSGGGGSGGGGSEIVLTQSPATLSVSPGERAILSCRASQSVRSNLAWYQQKPGQPPRLVIYDASSRATGIPARFSGSGSGTDFTLTISSLEPEDFAAYYCQQYGSSQLTFGGGTKLEIKR
notes: This is the clone as screened after panning
Q: Does B1 bind [1]?
A: Result: binds

Q: Does B1 bind [2]?
A: Result: binds
